Biological target: T1, GST-NHERF1-PDZ2 (PDZ2 domain of Na+/H+ exchanger regulatory factor 1 fused to GST)
T1 sequence (O14745 whole entry, species assumed, looked up): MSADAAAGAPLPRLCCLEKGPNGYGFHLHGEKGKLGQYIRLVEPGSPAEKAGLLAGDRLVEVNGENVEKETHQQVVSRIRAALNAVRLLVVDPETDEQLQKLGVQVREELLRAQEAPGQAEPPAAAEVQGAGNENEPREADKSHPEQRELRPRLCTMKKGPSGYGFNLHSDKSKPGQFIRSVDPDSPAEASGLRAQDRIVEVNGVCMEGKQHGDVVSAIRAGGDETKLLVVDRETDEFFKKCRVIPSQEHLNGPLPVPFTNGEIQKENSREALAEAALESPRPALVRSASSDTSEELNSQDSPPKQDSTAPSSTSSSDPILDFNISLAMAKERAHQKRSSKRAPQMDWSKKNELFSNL
Experiment: AlphaScreen or HTRF

Substance	IC50 [nM]
Flag-WT CFTR (cystic fibrosis transmembrane-conductance regulator, wild type) (from UniProt P13569 1-1480) (natural protein)	89.3
Flag-ΔF508 CFTR (CFTR with deletion of phenylalanine at residue 508) (from UniProt P13569 1-1480) (natural protein)	442

Reference: paper PMC4081048
